Laboratory results as given in US10941182 (Amgen, dated 2021).
Starred links: 1 amine or outer side, 2 acyl side, 3 side chain; linkers in the order of their positions; H or OH if unused. Non-standard residues stand in square brackets, D forms with d. *: point of attachment. dBip = N[C@H](Cc1ccc(-c2ccccc2)cc1)C(=O)O; Oic = O=C(O)[C@@H]1C[C@@H]2CCCC[C@@H]2N1; Phe(4-Cl) = N[C@@H](Cc1ccc(Cl)cc1)C(=O)O; Phe(4-I) = N[C@@H](Cc1ccc(I)cc1)C(=O)O; γGlu = O=C(O)[C@H](CCC(=O)[*:2])N[*:1]; Tridecanoyl = CCCCCCCCCCCCC(=O)*; hArg = N=C(N)NCCCC[C@H](N)C(=O)O; Cha = N[C@@H](CC1CCCCC1)C(=O)O; NMeL = CN[C@@H](CC(C)C)C(=O)O; Nle = CCCC[C@H](N)C(=O)O; AEEA = NCCOCCOCC(=O)O

T1: human APJ receptor (human, UniProt P35414 1-380)
T1 sequence (looked up): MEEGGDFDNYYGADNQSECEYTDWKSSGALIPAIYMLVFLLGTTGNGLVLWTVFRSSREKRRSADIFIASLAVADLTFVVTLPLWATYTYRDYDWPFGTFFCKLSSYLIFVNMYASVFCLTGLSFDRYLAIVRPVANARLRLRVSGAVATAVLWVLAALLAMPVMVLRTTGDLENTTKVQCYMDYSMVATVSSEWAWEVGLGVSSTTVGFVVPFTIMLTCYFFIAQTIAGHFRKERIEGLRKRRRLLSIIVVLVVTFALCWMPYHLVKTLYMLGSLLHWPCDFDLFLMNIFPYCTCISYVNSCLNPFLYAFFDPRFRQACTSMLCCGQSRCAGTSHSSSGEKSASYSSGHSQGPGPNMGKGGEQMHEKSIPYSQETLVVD

T2: rat APJ receptor (rat, UniProt Q9JHG3 1-377)
T2 sequence (looked up): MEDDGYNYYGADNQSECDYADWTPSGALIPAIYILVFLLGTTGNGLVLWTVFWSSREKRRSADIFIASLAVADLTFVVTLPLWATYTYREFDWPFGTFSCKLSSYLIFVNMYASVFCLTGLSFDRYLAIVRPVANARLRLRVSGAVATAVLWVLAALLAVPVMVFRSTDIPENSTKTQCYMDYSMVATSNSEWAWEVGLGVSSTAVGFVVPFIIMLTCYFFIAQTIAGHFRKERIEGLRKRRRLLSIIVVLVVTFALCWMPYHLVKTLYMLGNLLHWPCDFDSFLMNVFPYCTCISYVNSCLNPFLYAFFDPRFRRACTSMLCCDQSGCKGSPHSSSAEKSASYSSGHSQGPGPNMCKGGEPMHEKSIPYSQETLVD

B1: apelin polypeptide SEQ ID NO: 216 (peptide)
peptide: Tridecanoyl-[γGlu][AEEA][AEEA]RQRP[dR][Cha]SHKG[Oic][Phe(4-I)]P[dBip]-OH
SMILES: CCCCCCCCCCCCC(=O)N[C@@H](CCC(=O)NCCOCCOCC(=O)NCCOCCOCC(=O)N[C@@H](CCCNC(=N)N)C(=O)N[C@@H](CCC(N)=O)C(=O)N[C@@H](CCCNC(=N)N)C(=O)N1CCC[C@H]1C(=O)N[C@H](CCCNC(=N)N)C(=O)N[C@@H](CC1CCCCC1)C(=O)N[C@@H](CO)C(=O)N[C@@H](Cc1c[nH]cn1)C(=O)N[C@@H](CCCCN)C(=O)NCC(=O)N1[C@H](C(=O)N[C@@H](Cc2ccc(I)cc2)C(=O)N2CCC[C@H]2C(=O)N[C@H](Cc2ccc(-c3ccccc3)cc2)C(=O)O)C[C@@H]2CCCC[C@@H]21)C(=O)O
B2: apelin polypeptide SEQ ID NO: 221 (peptide)
peptide: Tridecanoyl-[γGlu][AEEA][AEEA][dR]Q[hArg]P[dR][Cha]SHKG[Oic][Nle]P[Phe(4-Cl)]-OH
SMILES: CCCCCCCCCCCCC(=O)N[C@@H](CCC(=O)NCCOCCOCC(=O)NCCOCCOCC(=O)N[C@H](CCCNC(=N)N)C(=O)N[C@@H](CCC(N)=O)C(=O)N[C@@H](CCCCNC(=N)N)C(=O)N1CCC[C@H]1C(=O)N[C@H](CCCNC(=N)N)C(=O)N[C@@H](CC1CCCCC1)C(=O)N[C@@H](CO)C(=O)N[C@@H](Cc1c[nH]cn1)C(=O)N[C@@H](CCCCN)C(=O)NCC(=O)N1[C@H](C(=O)N[C@@H](CCCC)C(=O)N2CCC[C@H]2C(=O)N[C@@H](Cc2ccc(Cl)cc2)C(=O)O)C[C@@H]2CCCC[C@@H]21)C(=O)O
B3: apelin polypeptide SEQ ID NO: 17 (peptide)
peptide: Ac-RQRP[hArg][Cha]SHKG[Oic][Nle]P[Phe(4-Cl)]-OH
SMILES: CCCC[C@H](NC(=O)[C@@H]1C[C@@H]2CCCC[C@@H]2N1C(=O)CNC(=O)[C@H](CCCCN)NC(=O)[C@H](Cc1c[nH]cn1)NC(=O)[C@H](CO)NC(=O)[C@H](CC1CCCCC1)NC(=O)[C@H](CCCCNC(=N)N)NC(=O)[C@@H]1CCCN1C(=O)[C@H](CCCNC(=N)N)NC(=O)[C@H](CCC(N)=O)NC(=O)[C@H](CCCNC(=N)N)NC(C)=O)C(=O)N1CCC[C@H]1C(=O)N[C@@H](Cc1ccc(Cl)cc1)C(=O)O
B4: apelin polypeptide SEQ ID NO: 219 (peptide)
peptide: Tridecanoyl-[γGlu][AEEA][AEEA][dR]Q[hArg]P[dR][NMeL]SHKG[Oic][Phe(4-I)]P[Phe(4-Cl)]-OH
SMILES: CCCCCCCCCCCCC(=O)N[C@@H](CCC(=O)NCCOCCOCC(=O)NCCOCCOCC(=O)N[C@H](CCCNC(=N)N)C(=O)N[C@@H](CCC(N)=O)C(=O)N[C@@H](CCCCNC(=N)N)C(=O)N1CCC[C@H]1C(=O)N[C@H](CCCNC(=N)N)C(=O)N(C)[C@@H](CC(C)C)C(=O)N[C@@H](CO)C(=O)N[C@@H](Cc1c[nH]cn1)C(=O)N[C@@H](CCCCN)C(=O)NCC(=O)N1[C@H](C(=O)N[C@@H](Cc2ccc(I)cc2)C(=O)N2CCC[C@H]2C(=O)N[C@@H](Cc2ccc(Cl)cc2)C(=O)O)C[C@@H]2CCCC[C@@H]21)C(=O)O
B5: apelin polypeptide SEQ ID NO: 214 (peptide)
peptide: Tridecanoyl-[γGlu][AEEA][AEEA]RQRP[hArg][Cha]SHKG[Oic][Phe(4-I)]P[dBip]-OH
SMILES: CCCCCCCCCCCCC(=O)N[C@@H](CCC(=O)NCCOCCOCC(=O)NCCOCCOCC(=O)N[C@@H](CCCNC(=N)N)C(=O)N[C@@H](CCC(N)=O)C(=O)N[C@@H](CCCNC(=N)N)C(=O)N1CCC[C@H]1C(=O)N[C@@H](CCCCNC(=N)N)C(=O)N[C@@H](CC1CCCCC1)C(=O)N[C@@H](CO)C(=O)N[C@@H](Cc1c[nH]cn1)C(=O)N[C@@H](CCCCN)C(=O)NCC(=O)N1[C@H](C(=O)N[C@@H](Cc2ccc(I)cc2)C(=O)N2CCC[C@H]2C(=O)N[C@H](Cc2ccc(-c3ccccc3)cc2)C(=O)O)C[C@@H]2CCCC[C@@H]21)C(=O)O
B6: apelin polypeptide SEQ ID NO: 217 (peptide)
peptide: Tridecanoyl-[γGlu][AEEA][AEEA][dR]QRP[hArg][Cha]SHKG[Oic][Phe(4-I)]P[dBip]-OH
SMILES: CCCCCCCCCCCCC(=O)N[C@@H](CCC(=O)NCCOCCOCC(=O)NCCOCCOCC(=O)N[C@H](CCCNC(=N)N)C(=O)N[C@@H](CCC(N)=O)C(=O)N[C@@H](CCCNC(=N)N)C(=O)N1CCC[C@H]1C(=O)N[C@@H](CCCCNC(=N)N)C(=O)N[C@@H](CC1CCCCC1)C(=O)N[C@@H](CO)C(=O)N[C@@H](Cc1c[nH]cn1)C(=O)N[C@@H](CCCCN)C(=O)NCC(=O)N1[C@H](C(=O)N[C@@H](Cc2ccc(I)cc2)C(=O)N2CCC[C@H]2C(=O)N[C@H](Cc2ccc(-c3ccccc3)cc2)C(=O)O)C[C@@H]2CCCC[C@@H]21)C(=O)O
B7: apelin polypeptide SEQ ID NO: 215 (peptide)
peptide: Tridecanoyl-[γGlu][AEEA][AEEA][dR]QRP[dR][Cha]SHKG[Oic][Phe(4-I)]P[dBip]-OH
SMILES: CCCCCCCCCCCCC(=O)N[C@@H](CCC(=O)NCCOCCOCC(=O)NCCOCCOCC(=O)N[C@H](CCCNC(=N)N)C(=O)N[C@@H](CCC(N)=O)C(=O)N[C@@H](CCCNC(=N)N)C(=O)N1CCC[C@H]1C(=O)N[C@H](CCCNC(=N)N)C(=O)N[C@@H](CC1CCCCC1)C(=O)N[C@@H](CO)C(=O)N[C@@H](Cc1c[nH]cn1)C(=O)N[C@@H](CCCCN)C(=O)NCC(=O)N1[C@H](C(=O)N[C@@H](Cc2ccc(I)cc2)C(=O)N2CCC[C@H]2C(=O)N[C@H](Cc2ccc(-c3ccccc3)cc2)C(=O)O)C[C@@H]2CCCC[C@@H]21)C(=O)O
B8: apelin polypeptide SEQ ID NO: 220 (peptide)
peptide: Tridecanoyl-[γGlu][AEEA][AEEA][dR]Q[hArg]P[dR][NMeL]SHKG[Oic][Nle]P[dBip]-OH
SMILES: CCCCCCCCCCCCC(=O)N[C@@H](CCC(=O)NCCOCCOCC(=O)NCCOCCOCC(=O)N[C@H](CCCNC(=N)N)C(=O)N[C@@H](CCC(N)=O)C(=O)N[C@@H](CCCCNC(=N)N)C(=O)N1CCC[C@H]1C(=O)N[C@H](CCCNC(=N)N)C(=O)N(C)[C@@H](CC(C)C)C(=O)N[C@@H](CO)C(=O)N[C@@H](Cc1c[nH]cn1)C(=O)N[C@@H](CCCCN)C(=O)NCC(=O)N1[C@H](C(=O)N[C@@H](CCCC)C(=O)N2CCC[C@H]2C(=O)N[C@H](Cc2ccc(-c3ccccc3)cc2)C(=O)O)C[C@@H]2CCCC[C@@H]21)C(=O)O
B9: apelin polypeptide SEQ ID NO: 218 (peptide)
peptide: Tridecanoyl-[γGlu][AEEA][AEEA][dR]Q[hArg]P[dR][NMeL]SHKG[Oic][Nle]P[Phe(4-Cl)]-OH
SMILES: CCCCCCCCCCCCC(=O)N[C@@H](CCC(=O)NCCOCCOCC(=O)NCCOCCOCC(=O)N[C@H](CCCNC(=N)N)C(=O)N[C@@H](CCC(N)=O)C(=O)N[C@@H](CCCCNC(=N)N)C(=O)N1CCC[C@H]1C(=O)N[C@H](CCCNC(=N)N)C(=O)N(C)[C@@H](CC(C)C)C(=O)N[C@@H](CO)C(=O)N[C@@H](Cc1c[nH]cn1)C(=O)N[C@@H](CCCCN)C(=O)NCC(=O)N1[C@H](C(=O)N[C@@H](CCCC)C(=O)N2CCC[C@H]2C(=O)N[C@@H](Cc2ccc(Cl)cc2)C(=O)O)C[C@@H]2CCCC[C@@H]21)C(=O)O

target: T1, human APJ receptor; assay: cell-based or functional assay

Binder	EC50 Human APJ Receptor [nM]
B1	10.8
B2	0.196
B3	0.171
B4	10.1
B5	2.92
B6	4.67
B7	8.42
B8	2.72
B9	0.841

target: T2, rat APJ receptor; assay: cell-based or functional assay

Binder	EC50 Rat APJ Receptor [nM]
B1	22.5
B2	1.93
B3	1.59
B4	45
B5	5.81
B6	8.83
B7	21.4
B8	27.6
B9	14.9
